# Laboratory results taken from the supplement of paper PMC9233669.
# Fewer inactive variants are shown than the library holds.
# Tests used:
# biotinyl-Met-oxazolone = test: self-aminoacylation, catalytic enhancement (BMO) (fold over background); higher = more active; k-Seq, kA / k0A0; sequences stand for … in GGGAAUGGAUCCACAUCUACGAAUUC…UUCACUGCAGACUUGACGAAGCUG
# Outline: (§1)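 Catalytic enhancement equals the median kA over the uncatalyzed rate, the latter read from the low-activity peak of a bimodal Gaussian fit. Values of kA came from fitting each sequence's fraction reacted to a pseudo-first-order model, with 1000 bootstraps. Reacted RNA was captured with streptavidin and quantified by triplicate qPCR and Illumina sequencing after 90 minutes at room temperature with 2–1250 μM biotinyl-aminoacyl-oxazolone and 0.43 μM mutagenized RNA pools bearing a 21-nt variable region.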
# biotinyl-Trp-oxazolone = test: self-aminoacylation, catalytic enhancement (BWO) (fold over background); higher = more active; k-Seq, kA / k0A0; sequences stand for … in GGGAAUGGAUCCACAUCUACGAAUUC…UUCACUGCAGACUUGACGAAGCUG
# Outline: as §1
# biotinyl-Phe-oxazolone = test: self-aminoacylation, catalytic enhancement (BFO) (fold over background); higher = more active; k-Seq, kA / k0A0; sequences stand for … in GGGAAUGGAUCCACAUCUACGAAUUC…UUCACUGCAGACUUGACGAAGCUG
# Outline: as §1
# biotinyl-Val-oxazolone = test: self-aminoacylation, catalytic enhancement (BVO) (fold over background); higher = more active; k-Seq, kA / k0A0; sequences stand for … in GGGAAUGGAUCCACAUCUACGAAUUC…UUCACUGCAGACUUGACGAAGCUG
# Outline: as §1
# biotinyl-Ile-oxazolone = test: self-aminoacylation, catalytic enhancement (BIO) (fold over background); higher = more active; k-Seq, kA / k0A0; sequences stand for … in GGGAAUGGAUCCACAUCUACGAAUUC…UUCACUGCAGACUUGACGAAGCUG
# Outline: as §1
# biotinyl-Leu-oxazolone = test: self-aminoacylation, catalytic enhancement (BLO) (fold over background); higher = more active; k-Seq, kA / k0A0; sequences stand for … in GGGAAUGGAUCCACAUCUACGAAUUC…UUCACUGCAGACUUGACGAAGCUG
# Outline: as §1
Sequence,self-aminoacylation (biotinyl-Met-oxazolone),self-aminoacylation (biotinyl-Trp-oxazolone),self-aminoacylation (biotinyl-Phe-oxazolone),self-aminoacylation (biotinyl-Val-oxazolone),self-aminoacylation (biotinyl-Ile-oxazolone),self-aminoacylation (biotinyl-Leu-oxazolone)
AUGACCCAGGUCAUCGAGUGA [Fam2.1 aminoacylation ribozyme variant],4.72,5.92,17.9,2.5,2.5,5.25
CUACUUCAAACAAUCAUUCUG [Fam1A.1 aminoacylation ribozyme variant],0.488,1.55,3.72,0.577,0.616,0.513
CCACACGUCAAGCCAUCGGUC [Fam1B.1 aminoacylation ribozyme variant],1.58,1.21,1.11,2.45,1.34,1.48
AUUUCGCUGGUCAUCGAGUGA [Fam2.1 aminoacylation ribozyme variant],4.64,5.72,28.5,3.16,2.84,5.38
AUUACCCUGGUAAUCGAGGGA [Fam2.1 aminoacylation ribozyme variant],0.924,0.832,0.55,1.04,1.1,0.931
AUUCACCUAGAUCAUCGGUUG [Fam2.2 aminoacylation ribozyme variant],0.778,0.447,0.463,0.983,0.794,0.786
CCACAAUUCAAACAAUCGGUC [Fam1B.1 aminoacylation ribozyme variant],1.08,8.88,18.1,1.04,1.26,1.19
GUUACCCUGGUCAUCGCGUGA [Fam2.1 aminoacylation ribozyme variant],25.3,26.8,212,14.8,11.2,25.2
CCUCACUUCAAGCAAUCGAUC [Fam1B.1 aminoacylation ribozyme variant],0.482,0.672,1.71,0.691,0.494,0.453
AUUACCCUGGCCAUCGAUUGA [Fam2.1 aminoacylation ribozyme variant],1.03,0.913,0.28,0.974,0.753,0.851
AUUACCCUGUUCAGCGAGUGA [Fam2.1 aminoacylation ribozyme variant],5.05,6.39,14.4,2.96,2.51,4.4
AUUACCCUGGUCAUAGGGUGA [Fam2.1 aminoacylation ribozyme variant],6.67,7.12,42.3,3.12,4.03,7.73
AAGUUUGAUGAUAGUCGCAAG [Fam3.1 aminoacylation ribozyme variant],1.49,1.4,2.4,1.49,1.78,1.63
CUACUUCAAACCAGCGGUCUG [Fam1A.1 aminoacylation ribozyme variant],0.722,0.677,0.715,1.13,0.921,1.09
AUUCACCCAGGGCAUCGGGUG [Fam2.2 aminoacylation ribozyme variant],3.74,3.92,20,3.72,3.62,6.26
UUUCACCUAGGUUAUCGGGUG [Fam2.2 aminoacylation ribozyme variant],3.71,4.62,19.6,2.93,2.92,3.72
CCACACGUGAAGCAAUCGGUC [Fam1B.1 aminoacylation ribozyme variant],1.32,1.39,0.826,1.2,0.9,0.721
AUUACCCUGGUCAUAGAGUGA [Fam2.1 aminoacylation ribozyme variant],10.4,11.9,54.8,4.94,4.72,9.8
AUAACCCUGGUCAUCCAGUGA [Fam2.1 aminoacylation ribozyme variant],5.52,6.17,22.8,3.21,3.62,6.28
AUUCACCGAGGUGAUCGGGUG [Fam2.2 aminoacylation ribozyme variant],4.75,3.05,29.6,4.15,3.8,6.59
AUGACCCUGGUCAUCGAGAGA [Fam2.1 aminoacylation ribozyme variant],1.47,1.36,2.57,1.34,1.28,1.52
AGUCACCUAGGUCAUCGGAUG [Fam2.2 aminoacylation ribozyme variant],1.21,0.786,1.24,1.04,1.2,1.18
CUACUUCUAACAAUCGCUCUG [Fam1A.1 aminoacylation ribozyme variant],0.553,0.498,0.385,0.559,0.612,0.602
AAGUUUGCUGAUAGUCGCAAA [Fam3.1 aminoacylation ribozyme variant],1.38,1.19,3.33,1.55,1.71,1.6
AAGUCUGCUAAUCGUCGCAAG [Fam3.1 aminoacylation ribozyme variant],1.36,1.94,4.49,1.01,0.996,1.15
GUUCACCUAAGUCAUCGGGUG [Fam2.2 aminoacylation ribozyme variant],7.53,7.87,51.4,5.4,5.38,9.78

Sequence,self-aminoacylation (biotinyl-Met-oxazolone),self-aminoacylation (biotinyl-Trp-oxazolone),self-aminoacylation (biotinyl-Phe-oxazolone),self-aminoacylation (biotinyl-Val-oxazolone),self-aminoacylation (biotinyl-Ile-oxazolone),self-aminoacylation (biotinyl-Leu-oxazolone)
CCACACUUCAAGCACUCGGUG [Fam1B.1 aminoacylation ribozyme variant],3.52,3.63,22.4,3.16,2.92,4.22
AUUCACCUAGGUCAUCAGCUG [Fam2.2 aminoacylation ribozyme variant],0.806,0.477,0.631,0.757,0.757,0.804
AUUCACUUACGUCAUCGGGUG [Fam2.2 aminoacylation ribozyme variant],5.61,5.63,38.4,3.36,3.35,7.03
CUACACUUAAAGCAAUCGGUC [Fam1B.1 aminoacylation ribozyme variant],0.713,0.459,0.694,0.738,0.786,0.696
AUUACGCGGGUCAUCGAGUGA [Fam2.1 aminoacylation ribozyme variant],5.54,5.54,22.7,3.31,3.23,4.86
AUUACCCUGGGCAUCUAGUGA [Fam2.1 aminoacylation ribozyme variant],6.2,7.33,44.6,3.38,3,7.13
AUCCACCCAGGUCAUCGGGUG [Fam2.2 aminoacylation ribozyme variant],5.87,7.4,40,5.18,4.15,7.15
AAGGUUGCUAAUAGUCGCAAA [Fam3.1 aminoacylation ribozyme variant],1.28,1.4,1.51,1.42,1.86,1.63
CUGCUUCAACCAAUCGGUCUG [Fam1A.1 aminoacylation ribozyme variant],1.41,43.2,79.4,1.38,1.31,2.45
AUUCACCUGGUUCAUCGGGUG [Fam2.2 aminoacylation ribozyme variant],3.08,3.62,15.2,3.1,2.42,3.19
AUUACCCUAGACAUCGAGUGA [Fam2.1 aminoacylation ribozyme variant],8.71,9.09,37,4.07,3.77,7.96
CCACACUUCAAUCAAGCGGUC [Fam1B.1 aminoacylation ribozyme variant],0.634,0.769,0.972,0.811,0.709,0.694
AUUCAACUAGUUCAUCGGGUG [Fam2.2 aminoacylation ribozyme variant],2.82,2.29,16.8,1.95,1.95,2.77
AUGCACCUAGGCCAUCGGGUG [Fam2.2 aminoacylation ribozyme variant],3.87,4.46,27.6,3.41,3.32,4.53
AAUACCCUGGUUAUCGAGUGA [Fam2.1 aminoacylation ribozyme variant],6.97,9.84,30.8,3.59,3.37,7.89
CCACACUUCUAGCCAUCGGUC [Fam1B.1 aminoacylation ribozyme variant],0.683,0.962,1.09,1.01,0.924,0.778
UUACUUCAAGCAAUCGGUCUG [Fam1A.1 aminoacylation ribozyme variant],1.12,3.89,5.97,0.95,0.993,1.26
CUACUUCAAGCUAUCGGUCUG [Fam1A.1 aminoacylation ribozyme variant],0.942,0.43,0.617,0.892,0.839,0.689
ACUACCCUGGUCAUCGAGUGU [Fam2.1 aminoacylation ribozyme variant],58.6,53.1,409,20.3,16.3,59.7
AUGACCCUGCUCAUCGAGUGA [Fam2.1 aminoacylation ribozyme variant],1.83,2.47,1.52,1.43,1.36,1.95
CUACUUAAAACAAUCGGUCCG [Fam1A.1 aminoacylation ribozyme variant],1.12,0.709,0.603,0.835,0.878,0.908
CAACACUUCAAGCAAACGGUC [Fam1B.1 aminoacylation ribozyme variant],0.678,0.739,0.797,0.815,0.92,0.68
CUACUUCACAAAAUCGGUCUG [Fam1A.1 aminoacylation ribozyme variant],0.863,0.739,0.608,0.831,0.985,0.823
AAUAUCCUGGUCAUCGAGUGA [Fam2.1 aminoacylation ribozyme variant],8.66,10.1,26.2,4.34,4.6,8.92
AUUACCAUGGUCAUCAAGUGA [Fam2.1 aminoacylation ribozyme variant],3.69,5.09,5.16,2.4,2.22,4.04
